Data taken from publication PMC10761072, “Post-transcriptional capping generates coenzyme A-linked RNA” (RNA Biology, 2023).

Substrate: CC(C)(COP(=O)(O)O)[C@@H](O)C(=O)NCCC(=O)NCCS
Assay: purified protein
Assay type: biochemical, Escherichia coli
Conditions: 10 µM pppAGGAA RNA as acceptor, 500 nM PPAT, 5 mM MgCl2, pH 7.5, 37°C, pPant 10-200 µM

B1: phosphopantetheine adenylyltransferase (PPAT, CoaD) (Escherichia coli K-12) (protein)
chain: MQKRAIYPGTFDPITNGHIDIVTRATQMFDHVILAIAASPSKKPMFTLEERVALAQQATAHLGNVEVVGFSDLMANFARNQHATVLIRGLRAVADFEYEMQLAHMNRHLMPELESVFLMPSKEWSFISSSLVKEVARHQGDVTHFLPENVHQALMAKLA
notes: recombinant full-length enzyme expressed from coaD plasmid and purified; hexamer
  Km: 14 µM
